From patent US20260193378A1

Assays:
[1] = biological target: CD19-targeting first-generation 19z1 CAR; experiment: flow cytometry on CAR+ PG13 fibroblasts, FL2-H PE against FL1-H FITC (no staining), live gate, 7308 events; lower left panel, sample line '19z1-19E9-PE 1 to 1000', same position as 19z1 in FIG. 18A and 18C; first panel (PG13 sample line) in the same gate: 0
[2] = biological target: first-generation PSMA-targeting Pz1 CAR; experiment: flow cytometry on CAR+ PG13 fibroblasts, FL2-H PE against FL1-H FITC (no staining), live gate, 9029 events; lower right panel, taken as Pz1 from the panel order of FIG. 18A and 18C; first panel (PG13 sample line) in the same gate: 0
[3] = biological target: CD19-targeting first-generation 19z1 CAR; experiment: flow cytometry on PG13 fibroblasts expressing the 19z1 CAR (panel title '19z1', sample line '19z 1-12D11-H'), 12D11 detected with anti-hamster IgG FITC, FL1-H FITC against FL2-H PE, live gate, 7334 events; parental PG13 cells in the same gate: 0.85
[4] = biological target: CD19-targeting second-generation 1928z CAR; experiment: flow cytometry on PG13 fibroblasts expressing the 1928z CAR (panel title '19-28z1 cells', sample line '1928z 1-12D11-H'), 12D11 detected with anti-hamster IgG FITC, FL1-H FITC against FL2-H PE, live gate, 9569 events; parental PG13 cells in the same gate: 0.85
[5] = biological target: first-generation PSMA-targeting Pz1 CAR; experiment: flow cytometry on PG13 fibroblasts expressing the Pz1 CAR (panel title 'PZ1', sample line 'PZ1-12D11-H'), 12D11 detected with anti-hamster IgG FITC, FL1-H FITC against FL2-H PE, live gate, 9102 events; parental PG13 cells in the same gate: 0.85

Binder | gate frequency (percent of live events in the PE-positive gate) [1] | gate frequency (percent of live events in the PE-positive gate) [2] | gate frequency (percent of live events in the FITC-positive gate) [3] | gate frequency (percent of live events in the FITC-positive gate) [4] | gate frequency (percent of live events in the FITC-positive gate) [5]
19E3 monoclonal antibody (antibody, V domains shown) VH: EVQLVESGGGLVQTGKSLKLSCEASGFTFSDFDMNWVRQAPGKGLEWVAYINGGSGVIFYADAVKGRFTISRDNAKNLLFLQMNNLKSEDSAMYYCAREELGRRYYFDYWGQGTMVTVSS VL: SQPVLTQSPSASASLSGSVKLTCTLSSEHSSYNIAWYQQHPDKAPKYVMYLKSDGSHFKGDGIPDRFSGSSSGAHRYLSISNVQSEDDATYFCGAGYTISGQYGYVFDSGTQLTVLG | 99.2 | 0.011 |  |  | 
12D11 monoclonal antibody (antibody, V domains shown) VH: AVRLLESGGGLVKPEGALKLSCVASGFDLSDYFMGWVRQAPGKGLEWVAHIYPQSYDYATYYSGSVQGRFTISRDDSRSMVYLQMNNLRTEDTATYYCTKDGDVGFWGQGTMVTVSS VL: DIQVTQSPTLLSASLGDKVTINCLASQDISNELNWYQQKSGQSPTLLIYNGKNLQSGVPSRFSGQYSGRSFTISINNVEPEDVATYFCLQHYSFPLTFGDGSKLEMKR |  |  | 96.3 | 67.9 | 76.4
